Reference: publication PMC2613638 (The Journal of Biological Chemistry, 2009)
“And” between values parts separate entries of the source, which are not always exact repeats. Identical values can stand only once.

T1: human CMKLR1 (Homo sapiens, UniProt Q99788)
T1 sequence (Q99788 1-373): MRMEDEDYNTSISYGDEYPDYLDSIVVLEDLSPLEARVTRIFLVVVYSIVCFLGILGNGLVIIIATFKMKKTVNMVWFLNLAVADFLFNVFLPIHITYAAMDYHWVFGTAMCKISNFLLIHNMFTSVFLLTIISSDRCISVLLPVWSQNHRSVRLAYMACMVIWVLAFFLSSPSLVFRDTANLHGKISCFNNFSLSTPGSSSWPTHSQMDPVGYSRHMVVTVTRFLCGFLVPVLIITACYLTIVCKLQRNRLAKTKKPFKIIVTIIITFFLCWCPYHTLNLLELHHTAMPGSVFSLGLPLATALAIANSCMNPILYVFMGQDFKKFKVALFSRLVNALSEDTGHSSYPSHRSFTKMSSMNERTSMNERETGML

T2: CPN (Homo sapiens, UniProt P15169)
T2 sequence (P15169 21-458): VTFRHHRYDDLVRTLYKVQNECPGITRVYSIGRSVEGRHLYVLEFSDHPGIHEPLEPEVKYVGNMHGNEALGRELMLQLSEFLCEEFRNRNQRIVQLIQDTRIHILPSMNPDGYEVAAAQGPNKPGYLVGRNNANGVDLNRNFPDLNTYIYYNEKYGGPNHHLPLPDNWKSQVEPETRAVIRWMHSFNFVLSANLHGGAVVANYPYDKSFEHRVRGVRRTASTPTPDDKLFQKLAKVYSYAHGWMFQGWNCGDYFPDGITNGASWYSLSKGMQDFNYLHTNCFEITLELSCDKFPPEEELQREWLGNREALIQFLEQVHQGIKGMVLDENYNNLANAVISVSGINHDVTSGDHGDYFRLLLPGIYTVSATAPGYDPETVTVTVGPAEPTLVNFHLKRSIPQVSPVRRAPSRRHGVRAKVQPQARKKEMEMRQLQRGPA

T3: CPB (TAFIa) (Homo sapiens, UniProt Q96IY4)
T3 sequence (Q96IY4 115-423): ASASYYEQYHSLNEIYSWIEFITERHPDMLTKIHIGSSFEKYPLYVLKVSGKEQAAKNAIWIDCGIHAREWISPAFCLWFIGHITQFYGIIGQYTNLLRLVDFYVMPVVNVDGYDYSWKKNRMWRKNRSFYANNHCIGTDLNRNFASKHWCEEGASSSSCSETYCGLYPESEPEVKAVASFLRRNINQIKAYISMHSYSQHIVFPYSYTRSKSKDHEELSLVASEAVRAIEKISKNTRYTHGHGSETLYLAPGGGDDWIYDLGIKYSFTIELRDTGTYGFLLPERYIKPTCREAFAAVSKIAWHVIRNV


Experiments:
plasmin followed by CPN = test: plasmin; conditions: 37 °C, up to 30 min plasmin, then 30 min CPN
Human plasmin = test: plasmin; conditions: 37°, up to 30 min
plasmin followed by CPB = test: plasmin; conditions: human, 37 °C, up to 30 min plasmin, then 30 min CPB
human CMKLR1 = molecular target: T1, human CMKLR1; test: In vitro transwell chemotaxis of CMKLR1/L1.2 transfectants; format: cell-based
CPN = molecular target: T2, CPN; conditions: CPN cleavage of comparison peptides; cited from earlier work
CPB (TAFIa) = molecular target: T3, CPB (TAFIa); conditions: CPB cleavage of comparison peptides; cited from earlier work
washed platelets = test: Chemerin release from washed platelets; format: cell-based, human; conditions: 37 °C for 3 min; thrombin receptor-activating peptide 20 μM, collagen 10 μg/ml, ADP 10 μM; Fig. 6C
Cathepsin G = conditions: cited from earlier work
Elastase = conditions: cited from earlier work
plasmin = test: plasmin; conditions: human
Tryptase = conditions: cited from earlier work
Staphopain B = conditions: cited from earlier work

Molecule	Km (CPN) [µM]	kcat (CPN) [s⁻¹]	kcat/Km (CPN) [M⁻¹ s⁻¹]	Km (CPB (TAFIa)) [µM]	kcat (CPB (TAFIa)) [s⁻¹]	kcat/Km (CPB (TAFIa)) [M⁻¹ s⁻¹]	also measured
YFPGQFAFSKALPRS	–	–	–	–	–	–	fragment found (plasmin followed by CPN): 9-mer (YFPGQFAFS); fragment found (Human plasmin): 10-mer (YFPGQFAFSK); fragment found (plasmin followed by CPB): 9-mer (YFPGQFAFS)
N=C(N)NCCSCC(CS)C(=O)O (racemic) [MGTA, DL-2-Mercaptomethyl-3 guanidinoethylthiopropanoic acid]	–	–	–	–	–	–	effect on PPP-induced increase of bioactivity of plasmin-cleaved prochemerin (human CMKLR1; MGTA 5 μM in PPP, treated prochemerin 0.2 nM, Fig. 4B): inhibited
C5a^66-74: comparison substrate peptide derived from C5a (SHKDMQLGR; C5a anaphylatoxin; UniProt P01031 743-751, looked up, fragment)	602 ± 74.3	9.3 ± 0.4	15000	219 ± 16.2	29.5 ± 0.7	130000	–
collagen	–	–	–	–	–	–	release of chemerin from washed platelets (washed platelets): induced the release of chemerin
Bradykinin (RPPGFSPFR; Bradykinin; UniProt P01042 381-389, looked up)	303 ± 29.1	9.1 ± 0.2	30000	70.6 ± 4.8	19.7 ± 4.8	280000	–
C3a^69-77: comparison substrate peptide derived from C3a (RASHLGLAR; C3a anaphylatoxin; UniProt P01024 740-748, looked up, fragment)	77.1 ± 11.2	57.9 ± 2.1	750000	35.9 ± 6.6	8.4 ± 0.6	230000	–
NH2-ADPELTEAQ...FAFSKALPRSPHHHHHH-COOH	–	–	–	–	–	–	fragment found (Cathepsin G): ...YFPGQFAF (21-156); fragment found (Elastase): ...YFPGQFAFS (21-157) and ...YFPGQFA (21-155) and ...YFPG (21-152); fragment found (plasmin): NH2-YFPGQFAFSK-COOH form (21-158); fragment found (Tryptase): ...YFPGQFAFSK (21-158) and ...YFPGQFA (21-155); fragment found (Staphopain B): ...YFPGQFAFS (21-157)
thrombin	–	–	–	–	–	–	chemerin activities of PPP after addition of thrombin (human CMKLR1; thrombin 5 units/ml added to PPP, 37 °C 5 min, Fig. 6B): had no effect; chemotaxis of CMKLR1-transfected cells (human CMKLR1; thrombin itself): did not induce the chemotaxis
prochemerin: recombinant full-length prochemerin with carboxyl-terminal His6 tag, expressed in insect cells (protein, UniProt Q99969 21-163, looked up, pro-form C-terminal His6 tag) pro-form: ELTEAQRRGLQVALEEFHKHPPVQWAFQETSVESAVDTPFPAGIFVRLEFKLQQTSCRKRDWKKPECKVRPNGRKRKCLACIKLGSEDKVLGRLVHCPIETQVLREAEEHQETQCLRVQRAGEDPHSFYFPGQFAFSKALPRS	–	–	–	–	–	–	CMKLR1-mediated chemotaxis after treatment with CPN and CPB alone (human CMKLR1; data not shown): did not induce CMKLR1-mediated chemotaxis; chemotactic activity after sequential treatment with plasmin and CPN or CPB (human CMKLR1; plasmin 1 μM, CPN or CPB 30 nM, final chemerin concentration 0.5 nM, Fig. 3B): dramatically enhanced; chemotactic bioactivity after plasmin alone (human CMKLR1; prochemerin activation by plasmin, dose-response, Fig. 3A): increased its chemotactic bioactivity
